The results in this text go back to patent US20250313625A1 (ELPISCIENCE SUZHOU BIOPHARMA, published 2025).

By EC50 is commonly meant the concentration giving half of the maximal effect. A high value points to lower potency in that assay. As a reminder, the IC50 is the point on the concentration scale where inhibition reaches its midpoint. Broadly, the Kd is a measure of binding affinity in units of concentration. Low values mean a tighter complex, high ones a looser complex. In general, koff refers to the rate constant with which the complex falls apart. A lower koff goes with a long-lived complex. In general, kon refers to the second-order rate constant of association.

The target of experiment [1] is T1, human LAG3, full length, stably expressed on cells (human, UniProt P18627 23-525).
T1 construct: whole, on cells; also called CHOK1-human LAG3
T1 sequence (looked up): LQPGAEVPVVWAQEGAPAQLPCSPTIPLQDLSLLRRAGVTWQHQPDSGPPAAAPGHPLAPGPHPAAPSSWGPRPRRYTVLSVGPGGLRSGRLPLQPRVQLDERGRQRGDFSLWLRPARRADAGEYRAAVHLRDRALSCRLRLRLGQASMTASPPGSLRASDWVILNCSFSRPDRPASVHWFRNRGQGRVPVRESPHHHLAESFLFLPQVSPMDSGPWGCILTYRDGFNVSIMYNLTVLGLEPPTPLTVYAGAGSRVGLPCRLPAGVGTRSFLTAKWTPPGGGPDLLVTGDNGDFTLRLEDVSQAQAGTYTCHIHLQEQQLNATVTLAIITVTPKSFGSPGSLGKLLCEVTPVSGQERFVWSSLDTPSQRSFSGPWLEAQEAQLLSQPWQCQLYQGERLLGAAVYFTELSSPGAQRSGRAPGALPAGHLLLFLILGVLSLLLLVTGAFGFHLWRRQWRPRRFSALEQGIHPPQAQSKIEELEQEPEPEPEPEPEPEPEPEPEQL
In words: FACS on 293F cells stably expressing human LAG3. The method, then: Briefly the antibodies were incubated with 2×10⁵ target cells at 4° C. for 1 hour. After washing, fluorescence labeled anti-mouse IgG 2nd antibody (Life Technologies) was added and incubated at 4° C. for 1 hour. Geometric median fluorescence intensity (MFI) was detected and EC₅₀ was calculated using GraphPad Prism9.0.
(§1) MFI was detected and EC₅₀ was calculated using GraphPad Prism9.0.

Experiment [2] concerns the target T2, mFc tagged human LAG3 ECD recombinant protein (human, UniProt P18627 23-450).
T2 construct: extracellular domain; purchased from Biointron; not shown: mouse IgG Fc (mFc) tag
T2 sequence (looked up): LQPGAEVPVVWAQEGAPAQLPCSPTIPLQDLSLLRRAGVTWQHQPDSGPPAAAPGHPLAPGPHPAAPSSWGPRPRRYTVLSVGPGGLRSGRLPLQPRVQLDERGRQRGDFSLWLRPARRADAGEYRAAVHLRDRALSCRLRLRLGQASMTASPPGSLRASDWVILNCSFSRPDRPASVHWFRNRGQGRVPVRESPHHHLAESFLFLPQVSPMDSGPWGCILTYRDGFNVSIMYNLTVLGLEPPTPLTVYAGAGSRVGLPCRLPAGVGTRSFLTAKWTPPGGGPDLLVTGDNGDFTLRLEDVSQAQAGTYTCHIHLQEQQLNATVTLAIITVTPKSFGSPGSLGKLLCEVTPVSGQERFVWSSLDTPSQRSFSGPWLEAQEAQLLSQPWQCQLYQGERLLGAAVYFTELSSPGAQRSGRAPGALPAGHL
In words: competitive FACS: mFc-LAG3 ECD binding to Raji cells (MHC II). As for the experimental part: (§2) Activity of the purified chimeric antibodies to block LAG3 and MHC II interaction was determined by competitive FACS assay. […] After washing, dye labeled anti-mouse Fc 2nd antibody (Sigma) was added and incubated at 37° C. for 1 hour. Fluorescence intensity was detected.

The target of experiment [3] is T3, human LAG3 ECD recombinant protein (plate coated, tag not stated) (human, UniProt P18627 23-450).
T3 construct: extracellular domain
T3 sequence (looked up): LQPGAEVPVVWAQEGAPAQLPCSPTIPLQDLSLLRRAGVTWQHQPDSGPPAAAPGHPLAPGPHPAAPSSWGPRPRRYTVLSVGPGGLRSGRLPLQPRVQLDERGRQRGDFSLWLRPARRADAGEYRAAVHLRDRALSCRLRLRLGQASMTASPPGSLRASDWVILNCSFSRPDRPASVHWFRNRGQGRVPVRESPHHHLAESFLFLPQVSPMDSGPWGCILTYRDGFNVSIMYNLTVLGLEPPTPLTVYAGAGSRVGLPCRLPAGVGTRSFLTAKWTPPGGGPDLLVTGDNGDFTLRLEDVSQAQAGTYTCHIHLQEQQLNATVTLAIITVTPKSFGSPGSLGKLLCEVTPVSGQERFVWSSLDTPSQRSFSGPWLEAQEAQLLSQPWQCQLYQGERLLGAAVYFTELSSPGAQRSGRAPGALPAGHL
In words: competitive ELISA format I: His-FGL1 binding to coated LAG3 ECD. The method, then: (§3) After washing, HRP labeled anti-His 2nd antibody (Sigma) was added and incubated at 37° C. for 1 hour. Then, 100 μl/well of TMB solution (Biotechnology) was added. After incubation for 15 minutes at room temperature, the reaction was stopped by the addition of 50 μl of 1N HCl. OD 450 nm was read. […] After washing, HRP labeled anti-SA 2nd antibody (Sigma) was added and incubated at 37° C. for 1 hour. Then, 100 μl/well of TMB solution (Biotechnology) was added. After incubation for 15 minutes at room temperature, the reaction was stopped by the addition of 50 μl of 1N HCl. OD 450 nm was read. […] The competition assay of format III is a competitive FACS assay. […] After washing, dye labeled anti-His 2nd antibody (Sigma) was added and incubated at 37° C. for 1 hour. Fluorescence intensity was detected.
On the technique in general: In an ELISA, binding on a coated surface is turned into a signal by an enzyme label.

Experiment [4] concerns the target T4, hFc tagged human LAG3 ECD recombinant protein (human, UniProt P18627 23-450).
T4 construct: range 23-450; also called biotin labelled hFc tagged human LAG3 ECD; not shown: human IgG Fc tag
T4 sequence (looked up): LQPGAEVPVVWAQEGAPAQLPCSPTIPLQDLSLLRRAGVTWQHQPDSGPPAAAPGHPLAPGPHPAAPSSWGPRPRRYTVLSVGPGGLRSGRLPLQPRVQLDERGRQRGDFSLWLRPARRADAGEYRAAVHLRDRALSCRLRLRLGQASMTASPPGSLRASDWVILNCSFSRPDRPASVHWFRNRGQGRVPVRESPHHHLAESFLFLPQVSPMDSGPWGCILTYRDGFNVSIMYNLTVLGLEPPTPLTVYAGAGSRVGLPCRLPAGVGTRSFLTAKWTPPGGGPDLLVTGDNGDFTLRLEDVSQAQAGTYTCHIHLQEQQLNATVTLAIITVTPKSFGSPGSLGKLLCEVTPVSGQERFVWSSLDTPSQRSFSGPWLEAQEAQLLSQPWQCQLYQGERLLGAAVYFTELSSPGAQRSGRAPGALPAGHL
In words: competitive ELISA format II: biotin hFc-LAG3 ECD binding to coated His-FGL1. As for the experimental part: as §3

Experiment [5] deals with T5, human LAG3 (form used in Octet, Biacore and HDX-MS not given) (human, UniProt P18627 23-450, limits assumed).
T5 sequence (looked up): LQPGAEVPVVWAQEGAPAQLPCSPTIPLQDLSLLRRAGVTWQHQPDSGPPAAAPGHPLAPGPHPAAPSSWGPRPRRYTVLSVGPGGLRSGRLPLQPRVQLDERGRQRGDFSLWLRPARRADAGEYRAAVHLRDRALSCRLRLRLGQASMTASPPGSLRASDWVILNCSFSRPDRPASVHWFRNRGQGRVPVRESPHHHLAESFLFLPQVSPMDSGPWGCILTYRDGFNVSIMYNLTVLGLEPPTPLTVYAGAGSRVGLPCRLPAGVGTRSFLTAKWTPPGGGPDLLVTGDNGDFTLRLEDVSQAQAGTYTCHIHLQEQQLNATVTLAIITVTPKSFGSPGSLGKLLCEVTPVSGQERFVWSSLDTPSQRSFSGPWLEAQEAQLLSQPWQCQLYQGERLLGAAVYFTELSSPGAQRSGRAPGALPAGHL
In words: BLI (Octet), 1:1 fit. As for the experimental part: (§4) The association and dissociation curves were fit with 1:1 binding model, and the Ka/Kd/KD values for each antibody were calculated.
as §4

Experiment [6] deals with T1, human LAG3, full length, stably …. In words: FACS on CHOK1 cells stably expressing human LAG3. As for the experimental part: as §1
Experiment [7] addresses T2, mFc tagged human LAG3 ECD recombinant …. In words: competitive FACS: mFc tagged human LAG3 ECD binding to MHC II on Raji cells. The method, then: as §2

B1: 047c (antibody, human IgG4, V domains shown)
VH: QVQLQQSGAELARPGASVKLSCKASGYSFTSYGVNWVKQRTGQGLEWIGEIYPRSGNTYYNERFGDKATLTADKSSSTAYMEIRSLTSEDSAVYFCARGGTYDGYYYAMDYWGQGTSVTVSS
VL: DIVLTQSPASLAVSLGQRATISCRASESVDNFGSSFMHWYQQKPGQAPKLLIYRASNLESGIPARFSGSGSRTDFTLTINPVETDDVATYYCQQVNKDPRTFGGGTKLEIK
notes: human IgG4 S228P / kappa chimeric antibody; also called chimeric antibody 047; not shown: human kappa light chain constant region (pcDNA3.4-hIgGk vector)
In the case of B1, in experiment [1], a half-maximal effect (EC50) was put at 1.3 nM and the “TOP MFI” value was found to be 249. Also, in experiment [2], the IC50 turned out to be 3.6 nM and the “TOP blocking (%)” value was 90.4%. Also, the “Blocking ratio at 66.7 nM (%)” value in experiment [3] came to 14%. In experiment [4], the IC50 came to 35.9 nM and the “TOP blocking (%)” value was found to be 12.6%.

B2: hu021.269 (antibody, V domains shown)
VH: QVQLQESGPGLVKPSQTLSLTCTVSGYSITSGYYWNWIRQHPGNKLEWIGDISYDGGNNYNPSLKNRVTISRDTSKNQFSLKLSSVTAADTAVYYCARDITLTGAMDYWGQGTTVTVSS
VL: EIVLTQSPATLSLSPGERATLSCRASESVDNYGISFMHWYQQKPGQAPRLLIYRASNRESGIPARFSGSGSRTDFTLTISSLEPEDFAVYYCQQSNKDPYTFGQGTKLEIK
notes: humanized from 021c
In experiment [5], B2 gave a Kd of 6.95 nM, a koff of 0.00314 s⁻¹ and a kon of 451000 M⁻¹ s⁻¹. In experiment [6], the EC50 was 2.3 nM and the “TOP MFI” value was 598. In addition, in experiment [7], the “%Blocking at 2 nM” value is 9.9%, the “%Blocking at 4 nM” value is 30.4% and the “%Blocking at 8 nM” value stood at 70.2%.

B3: hu021.279 (antibody, V domains shown)
VH: QIQLQESGPGLVKPGQTLSLTCTVSGYSITSGYYWTWIRQHPGNKLEWIGDISYDAGNNYNPSLKNRITISRDTSKNQFSLKLSSVTAEDTATYYCARDITLTGAMDYWGQGTTVTVSS
VL: EIVLTQSPATLSLSPGERATLSCRASESVDNYGISFMHWYQQKPGQAPRLLIYRASNLESGIPARFSGSGSGTDFTLTISSLEPEDFAVYYCQQSNKDPYTFGQGTKLEIK
notes: humanized from 021c; also called hu21.279
With B3, in experiment [5], binding was put at a Kd of 3.57 nM, the koff turned out to be 0.00313 s⁻¹ and the kon was determined as 877000 M⁻¹ s⁻¹. In experiment [6], it took 0.4 nM to reach a half-maximal effect (EC50) and the “TOP MFI” value is 669. Moreover, in experiment [7], the “%Blocking at 2 nM” value was determined as 20%, the “%Blocking at 4 nM” value came out at 40.3% and the “%Blocking at 8 nM” value is 98.5%.
